Source: patent publication US20160108105A1

Target: FcγRI (UniProt P12314)
Assay: ELISA, coated protein, soluble FcγRI 2 µg/ml

UniProt P12314, sequence (P12314 16-288 limits assumed): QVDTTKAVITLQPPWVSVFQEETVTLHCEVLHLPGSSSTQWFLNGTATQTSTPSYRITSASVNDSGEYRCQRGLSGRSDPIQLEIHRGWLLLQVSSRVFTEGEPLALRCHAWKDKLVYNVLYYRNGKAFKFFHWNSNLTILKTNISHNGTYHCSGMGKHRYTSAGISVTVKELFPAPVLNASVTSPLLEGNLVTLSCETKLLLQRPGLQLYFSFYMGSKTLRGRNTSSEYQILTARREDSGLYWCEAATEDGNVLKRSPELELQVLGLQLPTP

FcγRI binding ability relative to hGH-IgG4Fc-wt (fold of hGH-IgG4Fc-wt): 0.5
Substance: hGH-chimeric IgG4 variant: 4 amino acids at the N-terminus of IgG4 Fc CH2 domain replaced with 2 amino acids of IgD CH2 domain (Fc fusion)
